In publication PMC8421406, “C9orf72-derived arginine-rich poly-dipeptides impede phase modifiers” (Nature Communications, 2021):
One block for each molecule: values may come before it.

Assays:
[1] = test system: MBP:FUS (full-length FUS droplets) / Kapβ2; experiment: Turbidity assay of FUS droplet formation (OD 395 nm); type: biochemical; conditions: 8 μM Kapβ2, 8 μM MBP:FUS
[2] = test system: FUS droplets (MBP:FUS/MBP:FUS:EGFP) / Kapβ2; experiment: Fluorescence microscopy of FUS droplets; type: biochemical; conditions: 16 μM Kapβ2, 16 μM Kapβ2–M9M complex, 50 μM PR20, repeated three times
[3] = test system: GFP:FUS-LC:NLS / mCh:FUS-LC hydrogel; experiment: Hydrogel binding assay, GFP:FUS-LC:NLS on mCh:FUS-LC hydrogel; type: biochemical; conditions: Kapβ2 0.1-1.0 µM; PR20 with 1.0 µM Kapβ2
Procedure: The experiment was independently repeated three times with similar results. Here, 10 μm scale bars are shown in the image. e Graphical description of hydrogel binding assay. Hydrogels of mCh:LC-domain accumulate GFP:LC-domain as it co-polymerizes. f Hydrogel binding assay for FUS-LC in the absence and presence of Kapβ2. mCh:FUS-LC (lower images) were incubated with 1.0 µM of GFP (left panel) or 1.0 µM of GFP:FUS-LC:NLS (right panel) in the presence of different concentrations of Kapβ2 (left to right: 0.1, 0.3, and 1.0 µM). g Quantitative analysis of Fig. 1f. Relative intensity of GFP signals is shown as the mean of three independent experiments ± SD, analyzed by one-way ANOVA followed by Dunnett’s multiple comparison test (**P < 0.01, ***P < 0.001). h Hydrogel binding assay for FUS-LC in the absence and presence of Kapβ2 and/or PR20. Hydrogel droplets of mCh:FUS-LC (lower images) were incubated with 1.0 µM of GFP (left panel) or GFP:FUS-LC:NLS (right panel). GFP:FUS-LC:NLS containing Kapβ2 (1.0 µM) was challenged for homotypic polymer extension in the absence or presence of different concentration of PR20. i Quantitative analysis of Fig. 1h. Relative intensity of GFP signals is shown as the mean of three independent experiments ± SD, analyzed by one-way ANOVA followed by Dunnett’s multiple comparison test (**P < 0.01). Source data are provided as a Source Data file. […]

[4] = test system: GFP:FUS-LC / mCh:FUS-LC hydrogel; experiment: Hydrogel binding assay, GFP:FUS-LC on mCh:FUS-LC hydrogel; type: biochemical; conditions: Kapβ2 0.1-10.0 µM; 1.0 µM GFP:FUS-LC
Description: Expression plasmids for recombinant proteins (GFP/mCherry fusion LC-domain of FUS (residue 2–214, GFP/mCh:FUS-LC) and GFP/mCherry fusion LC-domain of hnRNPA2 (residue 181–341, GFP/mCh:hnRNPA2-LC)) were obtained from the Steven L. McKnight Laboratory. Expression plasmid for GFP:FUS-LC fusion NLS (residue 501–526, GFP:FUS-LC:NLS), mCh fusion LC-domain of TDP43 (residue 262–414, mCh:TDP43-LC), and GFP-tagged cNLS (residue 78–99) fusion TDP43-LC (GFP:cNLS:TDP43-LC) were constructed using In-Fusion HD Cloning Kit (Takara Bio, Inc.). GFP/mCh:FUS-LC, GFP:FUS-LC:NLS, and GFP/mCh:hnRNPA2-LC were expressed in E. coli BL21(DE3) cells with 0.5 mM IPTG at 20 °C overnight and purified by Ni-NTA Agarose (FUJIFILM Wako Pure Chemical Corporation), as described in a previous study. GFP:cNLS:TDP43-LC were expressed with 1.0 mM IPTG at 37 °C for 3 h and mCh:TDP43-LC were expressed with 0.5 mM IPTG at 16 °C overnight. GFP:cNLS:TDP43-LC and mCh:TDP43-LC were purified by Ni-NTA as described in a previous study[48] with some modifications. […] Relative intensity of GFP signals across the hydrogel droplets were measured in triplicate by using the profile plot mode in ImageJ. […]

Kapβ2 = experiment: Solution NMR (1H-13C methyl) of labelled Kapβ2; type: binding; conditions: comparison of perturbations by PR20, M9M and FUS-ΔNLS
Procedure: The Kapβ2 expression plasmid was transformed into BL21(DE3) cells. The protein samples with ^1H,^13C-labeled methyl groups in deuterium background were prepared as described in a previous study. The cells were grown in medium with ^15NH4Cl (2 gL^−1, CIL) and ^2H7-glucose (2 g L^−1, CIL) in 99.9% ^2H2O (Isotec). The precursors for methyl groups of Ile, Val, and Leu, α-ketobutyric acid (50 mg L^−1) and α-ketoisovaleric acid (80 mg L^−1), and [^13CH3] methionine (50 mg L^−1) were added to the culture 1 h before the addition of IPTG. Protein expression was induced by the addition of 0.5 mM IPTG at OD600 ~ 0.6, followed by ~16 h of incubation at 25 °C. […] Protein concentration was determined spectrophotometrically at 280 nm using a corresponding extinction coefficient.
The isotopically labeled Kapβ2 was prepared in the NMR buffer containing 20 mM ^2H-Tris pH 7.4, 150 mM NaCl, 2 mM MgCl2, 2 mM DTT, and 2% glycerol, concentrated to 20 μM. […] Perturbation of the side chain methyl resonances were each monitored using ^1H-^13C heteronuclear multiple quantum coherence. […] The perturbations of the resonances were evaluated based on chemical shift change or intensity change. […]
In order to investigate the interaction between Kapβ2 and PR poly-dipeptide by NMR, the NMR spectra of the isotopically labeled Kapβ2 in the absence and presence of the synthetic peptide of PR20:HA were measured. […]

Effect on hydrogel binding of GFP:FUS-LC:NLS [3]: blocked by Kapβ2
Effect on hydrogel binding of GFP:FUS-LC [4]: not blocked
B1: Kapβ2: nuclear import receptor karyopherin-β2, recombinant (protein)
chain: MVWDRQTKMEYEWKPDEQGLQQILQLLKESQSPDTTIQRTVQQKLEQLNQYPDFNNYLIFVLTKLKSEDEPTRSLSGLILKNNVKAHFQNFPNGVTDFIKSECLNNIGDSSPLIRATVGILITTIASKGELQNWPDLLPKLCSLLDSEDYNTCEGAFGALQKICEDSAEILDSDVLDRPLNIMIPKFLQFFKHSSPKIRSHAVACVNQFIISRTQALMLHIDSFIENLFALAGDEEPEVRKNVCRALVMLLEVRMDRLLPHMHNIVEYMLQRTQDQDENVALEACEFWLTLAEQPICKDVLVRHLPKLIPVLVNGMKYSDIDIILLKGDVEEDETIPDSEQDIRPRFHRSRTVAQQHDEDGIEEEDDDDDEIDDDDTISDWNLRKCSAAALDVLANVYRDELLPHILPLLKELLFHHEWVVKESGILVLGAIAEGCMQGMIPYLPELIPHLIQCLSDKKALVRSITCWTLSRYAHWVVSQPPDTYLKPLMTELLKRILDSNKRVQEAACSAFATLEEEACTELVPYLAYILDTLVFAFSKYQHKNLLILYDAIGTLADSVGHHLNKPEYIQMLMPPLIQKWNMLKDEDKDLFPLLECLSSVATALQSGFLPYCEPVYQRCVNLVQKTLAQAMLNNAQPDQYEAPDKDFMIVALDLLSGLAEGLGGNIEQLVARSNILTLMYQCMQDKMPEVRQSSFALLGDLTKACFQHVKPCIADFMPILGTNLNPEFISVCNNATWAIGEISIQMGIEMQPYIPMVLHQLVEIINRPNTPKTLLENTAITIGRLGYVCPQEVAPMLQQFIRPWCTSLRNIRDNEEKDSAFRGICTMISVNPSGVIQDFIFFCDAVASWINPKDDLRDMFCKILHGFKNQVGDENWRRFSDQFPLPLKERLAAFYGV
modifications: left off: GST, end not stated, cleaved
notes: nuclear import receptor karyopherin-β2, recombinant
Effect of Kapβ2 on FUS droplet formation (turbidity) [1]: kept FUS from changing into liquid-like droplets
Effect on FUS droplets (microscopy) [2]: FUS droplets are dissolved by Kapβ2

B2: FUS-ΔNLS: FUS (1-500, FUS-ΔNLS) (protein)
chain: MASNDYTQQATQSYGAYPTQPGQGYSQQSSQPYGQQSYSGYSQSTDTSGYGQSSYSSYGQSQNTGYGTQSTPQGYGSTGGYGSSQSSQSSYGQQSSYPGYGQQPAPSSTSGSYGSSSQSSSYGQPQSGSYSQQPSYGGQQQSYGQQQSYNPPQGYGQQNQYNSSSGGGGGGGGGGNYGQDQSSMSSGGGSGGGYGNQDQSGGGGSGGYGQQDRGGRGRGGSGGGGGGGGGGYNRSSGGYEPRGRGGGRGGRGGMGGSDRGGFNKFGGPRDQGSRHDSEQDNSDNNTIFVQGLGENVTIESVADYFKQIGIIKTNKKTGQPMINLYTDRETGKLKGEATVSFDDPPSAKAAIDWFDGKEFSGNPIKVSFATRRADFNRGGGNGRGGRGRGGPMGRGGYGGGGSGGGGRGGFPSGGGGGGGQQRAGDWKCPNPTCENMNFSWRNECNQCKAPKPDGPGGGPGGSHMGGNYGDDRRGGRGGYDRGGYRGRGGDRGGFRGGRGG
modifications: left off: MBP, end not stated, state not stated
Binding site on Kapβ2 by NMR (Kapβ2): the binding site for FUS-ΔNLS does not overlap with that for PR20
